The values that follow come from PMC10617564, “Efficient clathrin-mediated entry of enteric adenoviruses in human duodenal cells” (Journal of Virology, 2023).

pKd: −log10 of the molar value.

By pKd is commonly meant the negative decadic logarithm of the Kd, by convention in mol/L. High values mean a small Kd, low ones a large Kd.

The assay concerns the target CAR (CXADR Fc chimera full-length extracellular D1D2 domain) (UniProt P78310). Put plainly: SPR; Biacore T-200; CAR-Fc amine-coupled to a CM5 chip (~1,500 response units); analytes in twofold dilutions 2000 to 7.81125 nM, injected 120 s at 30 uL/min; 25°C; 10 mM phosphate buffer pH 7.4, 140 mM NaCl, 0.27 mM KCl, 0.05% Tween20; regeneration with 10 mM glycine pH 1.5; three independent experiments. For orientation: SPR reads the build-up and loss of mass on a sensor chip optically.

Sequence of CAR (CXADR Fc chimera full-length extracellular D1D2 domain) (P78310 20-237, change not shown): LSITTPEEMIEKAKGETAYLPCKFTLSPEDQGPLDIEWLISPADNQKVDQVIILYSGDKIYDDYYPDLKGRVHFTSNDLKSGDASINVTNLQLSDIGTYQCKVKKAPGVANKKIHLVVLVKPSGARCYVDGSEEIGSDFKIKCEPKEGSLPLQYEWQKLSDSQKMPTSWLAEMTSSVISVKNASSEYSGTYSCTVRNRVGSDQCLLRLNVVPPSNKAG
Sequence of HAdV-F41 long fiber knob (domain or fragment) (P14267 363-562 limits assumed): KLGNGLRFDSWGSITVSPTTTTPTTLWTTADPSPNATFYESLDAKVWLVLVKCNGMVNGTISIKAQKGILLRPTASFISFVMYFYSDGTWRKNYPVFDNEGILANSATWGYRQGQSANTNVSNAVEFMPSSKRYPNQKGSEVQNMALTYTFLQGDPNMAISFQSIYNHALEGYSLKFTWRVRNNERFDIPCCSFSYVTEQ
Sequence of HAdV-F40 long fiber knob (domain or fragment) (P18047 348-547 limits assumed): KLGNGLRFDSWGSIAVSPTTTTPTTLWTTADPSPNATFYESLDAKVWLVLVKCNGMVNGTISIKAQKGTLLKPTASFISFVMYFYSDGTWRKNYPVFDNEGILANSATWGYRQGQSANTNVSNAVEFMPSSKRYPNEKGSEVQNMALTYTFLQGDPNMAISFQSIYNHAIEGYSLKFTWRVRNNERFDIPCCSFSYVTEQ

For “HAdV-F40 long fiber knob (domain or fragment)”, the negative logarithm of the Kd (pKd) was 7.59.
“HAdV-F41 long fiber knob (domain or fragment)” gave a pKd of 8.20.
